Measurements from patent US20250154278A1 (JANUX THERAPEUTICS, published 2025).
Read-outs that look alike come from different tables or passages of the source.

T1: Human TROP2 full length, on tumor cells (HCT116, MDAMB231, NCI-H292) (human, UniProt P09758 31-323)
T1 sequence: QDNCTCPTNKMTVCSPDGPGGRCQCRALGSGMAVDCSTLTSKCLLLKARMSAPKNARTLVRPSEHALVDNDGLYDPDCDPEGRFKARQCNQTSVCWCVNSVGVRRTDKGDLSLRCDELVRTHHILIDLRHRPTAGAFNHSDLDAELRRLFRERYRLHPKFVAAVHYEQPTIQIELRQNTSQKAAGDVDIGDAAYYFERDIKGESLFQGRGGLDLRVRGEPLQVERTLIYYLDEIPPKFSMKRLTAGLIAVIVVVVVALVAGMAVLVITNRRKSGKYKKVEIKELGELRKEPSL

T2: Human TROP2 ECD (31-274 AA), biotinylated (human, UniProt P09758 31-274, biotinylated (site not stated))
T2 construct: the entry is already residues 31-274; also called Human TROP2-biotin; hTROP2-Biotin
T2 sequence: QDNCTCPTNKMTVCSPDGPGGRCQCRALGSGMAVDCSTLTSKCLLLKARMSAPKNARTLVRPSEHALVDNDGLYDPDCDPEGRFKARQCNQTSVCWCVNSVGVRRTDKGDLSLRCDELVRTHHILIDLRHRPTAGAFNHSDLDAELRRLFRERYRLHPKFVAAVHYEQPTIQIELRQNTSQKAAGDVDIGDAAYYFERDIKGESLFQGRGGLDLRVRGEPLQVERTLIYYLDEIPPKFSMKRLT


Experiments:
[1] = biological target: T1, Human TROP2 full length, on tumor cells …; assay: cell-based or functional assay
[2] = biological target: T3, human CD3 epsilon, biotinylated (human, UniProt P07766 23-126, limits assumed, biotinylated (site not stated)); assay: ELISA, CD3e-biotin captured
T3 construct: Printed in places as CD36, CD38, CD3c or CD3&; also called CD3e-bio; human CD3e-biotin

[3] = biological target: T3, human CD3 epsilon, biotinylated; assay: BLI, CD3e-biotin on sensor (summary)
[4] = biological target: T2, Human TROP2 ECD (31-274 AA), …; assay: BLI, human TROP2-biotin (10 nM) on sensor, 50 nM TCE
[5] = biological target: T1, Human TROP2 full length, on tumor cells …; assay: cell-based or functional assay; remark: listed apart in the source
[6] = biological target: T1, Human TROP2 full length, on tumor cells …; assay: cell-based or functional assay; remark: listed apart in the source

T3 sequence (P07766 23-126 limits assumed): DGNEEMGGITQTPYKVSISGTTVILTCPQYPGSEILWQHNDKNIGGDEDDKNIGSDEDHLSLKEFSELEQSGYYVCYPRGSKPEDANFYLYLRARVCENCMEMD

| Binder | H292 Cytotox EC50 [1] [nM] | EC50 [2] [nM] | CD3 t1/2 [3] [s] | Kd [4] [nM] | H292 Cytotox EC50 [5] [nM] | HCT116 Cytotox EC50 [6] [nM] |
| --- | --- | --- | --- | --- | --- | --- |
| TCE-34 (anti-CD3 scFv F240A, anti-TROP2 wt) (bispecific antibody) light: DIQLTQSPSSLSASVGDRVSITCKASQDVSIAVAWYQQKPGKAPKLLIYSASYRYTGVPDRFSGSGSGTDFTLTISSLQPEDFAVYYCQQHYITPLTFGAGTKVEIKRTVAAPSVFIFPPSDEQLKSGTASVVCLLNNFYPREAKVQWKVDNALQSGNSQESVTEQDSKDSTYSLSSTLTLSKADYEKHKVYACEVTHQGLSSPVTKSFNRGEC heavy: not shown | 0.02 | 0.6 | 39 |  |  |  |
| TCE-41 (anti-CD3 scFv with P41S, A49G, N87S and further mutations as in TCE-35; anti-TROP2 HC F108A) (bispecific antibody) light: DIQLTQSPSSLSASVGDRVSITCKASQDVSIAVAWYQQKPGKAPKLLIYSASYRYTGVPDRFSGSGSGTDFTLTISSLQPEDFAVYYCQQHYITPLTFGAGTKVEIKRTVAAPSVFIFPPSDEQLKSGTASVVCLLNNFYPREAKVQWKVDNALQSGNSQESVTEQDSKDSTYSLSSTLTLSKADYEKHKVYACEVTHQGLSSPVTKSFNRGEC heavy: EVQLVESGGGLVQPGGSLKLSCAASGFTFNKYAMNWVRQASGKGLEWVGRIRSKYNNYATYYADSVKDRFTISRDDSKNTAYLQMNSLKTEDTAVYYCVRHGNFGNSYISYWAYWGQGTLVTVSSGGGGSGGGGSGGGGSQTVVTQEPSFSVSPGGTVTLTCRSSTGAVTSGNYANWVQQTPGQAPRGLIGGTKFLAPGVPDRFSGSILGNKAALTITGAQADDESDYYCVLWYSNRWVFGGGTKLTVLGGGGSQVQLQQSGSELKKPGASVKVSCKASGYTFTNYGMNWVKQAPGQGLKWMGWINTYTGEPTYTDDFKGRFAFSLDTSVSTAYLQISSLKADDTAVYFCARGGFGSSYWYADVWGQGSLVTVSSASTKGPSVFPLAPSSKSTSGGTAALGCLVKDYFPEPVTVSWNSGALTSGVHTFPAVLQSSGLYSLSSVVTVPSSSLGTQTYICNVNHKPSNTKVDKKVEPKSC |  |  |  | 1.22 | 0.003 | 0.073 |
